Measurements as given in patent US20240245805A1 (Orna Therapeutics, Inc., priority 2020, published 2024).

What follows are molecules tested on HEK293 cells. Conditions: circular RNA encoding Gluc with the listed IRES (UTR truncated to 675 nt) transfected into HEK293 cells; supernatant after 24 hours.
Type: cell-based, human

Molecule | Expression (luminescence from secreted Gluc protein)
Yokose virus (nucleic acid, listed as Yokose virus, lipid formulation) DNA: AGTAAATTTTGCGTGCTAGTCGCTGAGCGTCAGACCGCAAAGTGAGTTTTTAGTGATCTAAAGTGAGGAGTTATTCTTACTGTCATCAAACACTACAAATAAACACGTTGAAATTATTTCCGGAAGAACAACTGTCCGGAATCAAAGACG | 8.55E+04
Equine hepacivirus (nucleic acid, listed as Hepacivirus sp., lipid formulation) ACCTCCGTGCTATGCACGGTGCGTTGTCAGCGTTTTGCGCTTGCATGCGCTACACGCGTCGTCCAACGCGGAGGGATTCTTCCACATTACCATGTGTCACTCCCCCTATGGAGGGTTCCACCCCGCCCACACGGAAATAGGTTAACCATACCTATAGTACGGGTGAGCGGGTCCTCCTAGGGCCCCCCCGGCAGGTCGAGGGAGCTGAAATTCGTGAATCCGTGAGTACACGGAAATCGCGGCTTGAACGTCATACGTGACCTTCGGAGCCGAAATTTGGGCGTGCCCCACGAAGGAAGGCGGGGGCGGTGTTGGGCCGCCGCCCCCTTTATCCCACGGTCTGATAGGATGCTTGCGAGGGCACCTGCCGGTCTCGTAGACCATAGGAC | 8.40E+04
Human pegivirus 2: "an IRES is an IRES sequence of ... Human Pegivirus 2" (nucleic acid, listed as Pegivirus sp.) DNA: AACTGTTGTTGTAGCAATGCGCATATTGCTACTTCGGTACGCCTAATTGGTAGGCGCCCGGCCGACCGGCCCCGCAAGGGCCTAGTAGGACGTGTGACAATGCCATGAGGGATCATGACACTGGGGTGAGCGGAGGCAGCACCGAAGTCGGGTGAACTCGACTCCCAGTGCGACCACCTGGCTTGGTCGTTCATGGAGGGCATGCCCACGGGAACGCTGATCGTGCAAAGGGATGGGTCCCTGCACTGGTGCCATGCGCGGCACCACTCCGTACAGCCTGATAGGGTGGCGGCGGGCCCCCCCAGTGTGACGTCCGTGGAGCGCAAC | 3.14E+05
Hepacivirus B (nucleic acid, Hepacivirus B) DNA: ACCACAAACACTCCAGTTTGTTACACTCCGCTAGGAATGCTCCTGGAGCACCCCCCCTAGCAGGGCGTGGGGGATTTCCCCTGCCCGTCTGCAGAAGGGTGGAGCCAACCACCTTAGTATGTAGGCGGCGGGACTCATGACGCTCGCGTGATGACAAGCGCCAAGCTTGACTTGGATGGCCCTGATGGGCGTTCATGGGTTCGGTGGTGGTGGCGCTTTAGGCAGCCTCCACGCCCACCACCTCCCAGATAGAGCGGCGGCACTGTAGGGAAGACCGGGGACCGGTCACTACCAAGGACGCAGACCTCTTTTTGAGTATCACGCCTCCGGAAGTAGTTGGGCAAGCCCACCTATATGTGTTGGGATGGTTGGGGTTAGCCATCCATACCGTACTGCCTGATAGGGTCCTTGCGAGGGGATCTGGGAGTCTCGTAGACCGTAGCAC | 8.84E+04
Rodent pegivirus (nucleic acid, listed as Pegivirus sp., lipid formulation) DNA: GGACTTCGGTCCCCCTGTTACTCTGCGAGCCACCGCAGAGCCAGGGTTGGTACGCCCGAGGTGTTAGACCCCGGCCGAAAGCTCCTAACCATGGGGTTAGTAGGACGTGGTAAATGCCACTGAGGGGTTGGAGAGCTGGTAGAGCGAGTAAGTCGGCGTAAGGCCCGAGTACGGGCCTCCCAGCCCGGGTCAGCCTAAACCTGGCTGTGATACCCGGTGCATGGAGGGCGTGTCCCAACGCTCGATCGCTGTAGGGTGGGTCCCTGCAGTTGGGTGTGGCTACCCTGCTCGTACTGCTTGATAGAGTCCCGGCGGACGGACCAGCTCTCGTCAGTCCGTGGAGTTGCAC | 1.79E+05
Theiler's disease-associated virus (nucleic acid, lipid formulation; source: /note="Description of Unknown: Theiler's disease-associated virus sequence") DNA: TGATACCGTGTCCCGGTACGACCTCGCGCGTCCCCAAGCTCGCCCTGAGGGGGGAGCGTAAGGGCGCGTAGTGGGGTAGCCCCCCAAACCGAGCCACCCTAGTGAGTGACTTTAGAATGGTTAGGGAGACTACCGCCTTCGCTGTTTGGGGACCTAATGATCCGCGTGCCAGGGTTCTTCGGGTAAATCCCGGCGCGGTGTTTTGGGTTCAGGGCAGTAGGGGCAGACGGGCCAGCAGTCGCTGGTTCCTGGTACCACCACCCTATCCGGACGACCTCCCTCACGAAAGGTCGCCACGGTCTGTGGCTCGACGACGCCTATAATTCAGTCCGAGGGGCGCAGCCCTCGTTAAACTTAGGCAAGGTTCCTCGCCATTGATTTGGCCAGGGGTTTAAGTGAACGCCGCCCTTTTAATGTTTAATAGGGTTCTTTCCCGGCGGGTTGACAAACACTTCCCTGGGCTCTTCGTTGGCCTCGGTTCCTTGATGCTTCGGCACCCATGAGCGCACAGGGGGGGGACCCTGCGACAGTCCGCCAAGAGGAAAATCCTTCGGGTGACCTCGTGCGCAACCCAATCCCTTCTTCTTCCACATGGCGTGTCTGTGGTGCATGCTGTG | 7.84E+04
GB virus C/Hepatitis G virus (nucleic acid, lipid formulation; source: /note="Description of Unknown: GB virus C/Hepatitis G virus sequence") CCCCCGGCACTGGGTGCAAGCCCCAGAAACCGACGCCTATCTAAGTAGACGCAATGACTCGGCGCCGACTCGGCGACCGGCCAAAAGGTGGTGGATGGGTGATGACAGGGTTGGTAGGTCGTAAATCCCGGTCACCTTGGTAGCCACTATAGGTGGGTCTTAAGAGAAGGTTAAGATTCCTCTTGTGCCTGCGGCGAGACCGCGCACGGTCCACAGGTGTTGGCCCTACCGGTGGGAATAAGGGCCCGACGTCAGGCTCGTCGTTAAACCGAGCCCGTTACCCACCTGGGCAAACGACGCCCACGTACGGTCCACGTCGCCCTTCAATGTCTCTCTTGACCAATAGGCGTAGCCGGCGAGTTGACAAGGACCAGTGGGGGCCGGGGGCTTGGAGAGGGACTCCAAGTCCCGCCCTTCCCGGTGGGCCGGGAAATGC | 1.36E+05
Zika Virus (nucleic acid, listed as Zika virus, chemistry not fully specified; the letters are possibly those of the target site) DNA: AGTTGTTGATCTGTGTGAGTCAGACTGCGACAGTTCGAGTCTGAAGCGAGAGCTAACAACAGTATCAACAGGTTTAATTTGGATTTGGAAACGAGAGTTTCTGGTC | 8.61E+04
Sakobuvirus A FFUP1 (1x mut) (nucleic acid, lipid formulation) DNA: TCACGCGCTTTTCCGGTGGTCACCCACCGTTAGGGAGCGCCAGCGTTCGCGCTTCCGCTACCAGGTGACACACTCCTTTCCCCTCCCCCATTCCCGTTCCCATCCTCTGGACTGGTTTCTCCTCACGATTGACCAGCAGCTGGGAGCTGTTACCAGACGTTGGACAGTAAGTCCCGGATGCACTATAGGGCTGGTGGCTAGTGCTTGGTAAGCACTCAACGCCATACCTAATGTGTACCTCGGCTTGCCCTCCTGGTCGTGGTGACCGGCTGTTTCTCTTCCCTTGGCTCCAGACGGGCTGGTGTCCTACCACCACCGTTGCATGCAGACCTCCCCCTGCGCACTCGAACGCCCTGTCCCAGCAGGGTTAGTATGTGCTGTGCAGATCTGCATGTGACACCCCATCCACTGGTAGAGCAGGAAGTTGCCCTAGCTAACGCGGCAAGTATTACTTTCCGCTACACGTCCTTGAGATTCCTCGGACCTCTGGAACTAGGGTGACTGTGGGCTTGGGAAAACCCACCTTGGTCCTGTACTGCCTGATAGGGTCGCGGCTGGCCGACCAGTGGATGTAGCCAGTTGTTTTGGGAT | 8.82E+06
